Each block holds one binder with its values, some of them ahead of it.
Legend:
[1] = target: T1, protein phosphatase 5 (PP5) (Homo sapiens (Human), UniProt P53041 1-499, limits assumed); assay: coimmunoprecipitation, gel
T1 construct: Wildtype PP5; also called protein phosphatase type 5; cell cycle protein
T1 sequence: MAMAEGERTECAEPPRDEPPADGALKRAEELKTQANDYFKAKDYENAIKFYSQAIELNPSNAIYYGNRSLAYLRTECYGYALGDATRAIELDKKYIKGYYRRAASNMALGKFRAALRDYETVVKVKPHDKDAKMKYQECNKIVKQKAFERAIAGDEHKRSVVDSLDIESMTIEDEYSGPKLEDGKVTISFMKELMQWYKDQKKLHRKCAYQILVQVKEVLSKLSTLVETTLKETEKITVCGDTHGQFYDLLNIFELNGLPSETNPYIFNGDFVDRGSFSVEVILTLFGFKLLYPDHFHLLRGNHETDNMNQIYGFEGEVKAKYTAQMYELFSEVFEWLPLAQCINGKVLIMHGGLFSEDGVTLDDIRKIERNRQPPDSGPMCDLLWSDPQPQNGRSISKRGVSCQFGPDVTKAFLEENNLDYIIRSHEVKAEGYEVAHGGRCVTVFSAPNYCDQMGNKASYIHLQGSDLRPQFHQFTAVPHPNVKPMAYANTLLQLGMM

Rad9 = target: T2, Rad9
T2 chain: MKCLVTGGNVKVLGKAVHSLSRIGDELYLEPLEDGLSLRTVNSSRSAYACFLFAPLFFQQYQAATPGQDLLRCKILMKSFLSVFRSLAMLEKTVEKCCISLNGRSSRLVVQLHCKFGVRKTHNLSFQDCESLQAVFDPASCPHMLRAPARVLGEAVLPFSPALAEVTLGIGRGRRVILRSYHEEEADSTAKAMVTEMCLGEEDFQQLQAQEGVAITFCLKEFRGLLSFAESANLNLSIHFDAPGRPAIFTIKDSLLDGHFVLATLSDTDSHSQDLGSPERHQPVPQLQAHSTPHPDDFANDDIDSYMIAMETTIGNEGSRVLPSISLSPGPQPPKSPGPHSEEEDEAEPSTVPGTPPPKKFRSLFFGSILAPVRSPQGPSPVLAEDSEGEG

- binding result [1]: binds
B1: Rad9 (other)
chain: T2 chain
notes: also called human Rad9

B2: protein phosphatase 5 (PP5) (protein)
chain: T1 sequence
- dephosphorylation of Rad9 (Rad9): cotransfection of PP5 with Rad9 in HeLa cells leads to dephosphorylation of Rad9 which is dependent on phophatase activity of PP5
- dephosphorylation of Rad9 in vitro (Rad9): PP5 dephosphorylates Rad9 directly in vitro
